Experimental findings from US20260285971 (published 2026) are described below.

Where a chain is given by its changes, count along the chain named.

The target in assay [1] is T1, human GPRC5D (human).
T1 chain: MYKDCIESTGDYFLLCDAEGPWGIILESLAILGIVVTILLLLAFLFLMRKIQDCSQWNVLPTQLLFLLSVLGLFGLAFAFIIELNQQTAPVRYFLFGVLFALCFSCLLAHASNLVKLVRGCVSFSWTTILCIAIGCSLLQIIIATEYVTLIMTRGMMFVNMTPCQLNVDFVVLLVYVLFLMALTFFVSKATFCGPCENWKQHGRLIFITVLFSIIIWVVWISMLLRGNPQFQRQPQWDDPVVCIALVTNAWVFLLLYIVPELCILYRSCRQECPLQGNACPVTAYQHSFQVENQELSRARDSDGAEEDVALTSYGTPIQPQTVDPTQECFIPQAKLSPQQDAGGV
Description: FACS molp-8.

In assay [2] the target is T1, human GPRC5D. Nature of the assay: FACS RPMI-8226.
Assay [3] deals with T1, human GPRC5D. Nature of the assay: FACS CHOK1-human GPRC5D.
Assay [4] deals with T1, human GPRC5D. Nature of the assay: FACS NCI-H929.

B1: HAB05-H3 (antibody, V domains shown)
VH: EVQLVESGGGLVQPGGSLRLSCAASGILVSAYVMAWYRQAPGKQRVLVSRLSTDGRTTYADSVKGRFTISKDNAKSTLYLQMNSLRAEDTAVYYCYAERSRGHWGQGTMVTVSS
Consider B1, for which the EC50 in assay [1] worked out at 0.0433 nM; in assay [2], 0.12 nM; in assay [3], 0.248 nM; in assay [4], 0.0861 nM.

B2: HAB05-H2 (antibody, V domains shown)
VH: B1 VH with S76N
B2: the EC50 was determined as 0.0839 nM in assay [1], 0.141 nM in assay [2], 0.514 nM in assay [3] and 0.202 nM in assay [4].

B3: HAB06-H1 (designed binder)
chain: EVQLVESGGGLVQPGGSLRLSCAASGFTFSSAWMYWFRQAPGKGLEWVSHIDPRGGSTYYADSVKGRFTISRDNSKNTLYLQMNSLRAEDTAVYYCAKDLRGLGRGQGTMVTVSS
Consider B3, for which the EC50 stood at 0.14 nM in assay [1], 0.406 nM in assay [2], 0.324 nM in assay [3] and 0.166 nM in assay [4].

The EC50 is the concentration giving half of the maximal effect. Low readings indicate an effect from little substance, high ones a need for much substance.
